Results taken from paper PMC10663143, “CALEOSIN 1 interaction with AUTOPHAGY-RELATED PROTEIN 8 facilitates lipid droplet microautophagy in seedlings” (Plant Physiology, 2023).

Biological target: T1, CALEOSIN 2 (CLO2), Cub fusion (Arabidopsis thaliana, UniProt Q9FLN9 1-243)
T1 construct: CALEOSIN 2 of Arabidopsis thaliana; the coding region was amplified and inserted into pMetYCgate; Bait; source: yeast split-ubiquitin fusion (pMetYCgate, S. cerevisiae THY.AP4)
Test: two-hybrid; mating-based split-ubiquitin system in yeast; Cub fusions as bait, NubG fusions as prey; quantitative β-galactosidase assay (Beta-Glo), activity normalized to a reference pair
Details: partners not purified

T1 sequence (Q9FLN9 whole entry, the tested form may be a part): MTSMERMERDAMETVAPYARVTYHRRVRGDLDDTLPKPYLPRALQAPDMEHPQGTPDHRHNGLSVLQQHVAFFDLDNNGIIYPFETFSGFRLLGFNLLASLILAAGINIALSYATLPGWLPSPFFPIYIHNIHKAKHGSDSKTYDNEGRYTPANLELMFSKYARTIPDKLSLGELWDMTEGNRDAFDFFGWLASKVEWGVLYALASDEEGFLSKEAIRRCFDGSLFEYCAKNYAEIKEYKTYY

B1: AUTOPHAGY-RELATED PROTEIN 8b (ATG8b), NubG fusion (natural protein, Arabidopsis thaliana, UniProt Q9XEB5 1-117, looked up)
chain: MEKNSFKLSNPLEMRMAESTRIRAKYPERVPVIVEKAGQSDVPDIDKKKYLVPADLTIGQFVYVVRKRIKLGAEKAIFVFVKNTLPPTAALMSAIYEEHKDEDGFLYMTYSGENTFG
notes: AUTOPHAGY-RELATED PROTEIN 8b of Arabidopsis thaliana; the coding region was amplified and inserted into pNXgate32-3HA; Prey; source: yeast split-ubiquitin fusion (pNXgate32-3HA, S. cerevisiae THY.AP5)
- fold weaker β-galactosidase activity than with CLO1, CLO3 and OLE1: 2 fold
